Laboratory results taken from patent US11994512B2, “Single-cell genomic methods to generate ex vivo cell systems that recapitulate in vivo biology with improved fidelity” (Massachusetts Institute of Technology, priority 2018, dated 2024).

Tested on: intracellular proteome of ENR+CD and ENR organoids
Test: LC-MS/MS TMT proteomics of ENR+CD versus ENR organoids
Assay type: cell-based, C57BL/6 mice
Conditions: for Average logFC / M1-1 Log2 Median Normalized / M1-2 Log2 Median Normalized / M2-1 Log2 Median Normalized / M2-2 Log2 Median Normalized: protein abundance, ENR+CD versus ENR organoids; for Average logFC: aggregate of the four sample pairs; for M1-1 Log2 Median Normalized: replicate M1-1; for M1-1 Log2 Median Normalized / M1-2 Log2 Median Normalized / M2-1 Log2 Median Normalized / M2-2 Log2 Median Normalized: log2 ratio; for M1-2 Log2 Median Normalized: replicate M1-2; for M2-1 Log2 Median Normalized: replicate M2-1; for M2-2 Log2 Median Normalized: replicate M2-2; for change: up = enriched in ENR+CD, down = enriched in ENR, FDR<0.05 and log fold change cut-off
Text: Because PCs are highly secretory, protein-rich cells, Applicants sought to assess the total intracellular proteome between conditions through liquid chromatography mass spectrometry (LC-MS/MS)-based proteomics. Applicants quantified relative protein abundance across eight samples using isobaric mass tag labeling from four ENR and four ENR+CD samples (M1-1 through M2-2, first digit denotes biological donor, second digit denotes technical replicate) (FIG. 3A). Samples were processed and analyzed in a single 10-plex by LC-MS/MS (FIG. 9A).
To affirm the reproducibility of the associated proteins in the ENR+CD-enriched proteome, Applicants performed relative quantification within differentiation sets.
Mass spectrometry proteomics sample preparation, sequencing, and quantification. Organoid cell pellets were isolated from Matrigel with mechanical dissociation and washed (cold PBS 5X) to remove residual extracellular protein. Proteins were extracted from cell pellets with 8 M urea (Sigma), reduced with 5 mM DTT (Thermo Fisher Pierce) for 45 minutes, alkylated with 10 mM IAA (Sigma) for 45 minutes in the dark, and double digested with both Lysyl Endopeptidase “LysC” (Wako) and trypsin (Promega) overnight at RT. A small aliquot of cellular lysate was removed from each sample for protein quantification via the Pierce™ BCA Protein Assay Kit (Pierce). After proteolytic digestion, the samples were quenched using formic acid to a final concentration of 1.0% and subsequently desalted on 10 mg OASIS HLB solid phase columns (Waters).
The peptides were labeled with TMT-10 isobaric mass tag reagent according to manufacturer's instructions (ThermoFisher Scientific). The peptides were labeled at a 1:8 ratio of peptide to TMT reagent, followed by 1-hour incubation at RT with bench top shaking at 850 rpm. After incubation, a […] of labeled tryptic peptide was removed from each labeled condition, desalted with C18 stage tips, and analyzed via LC-MS/MS using a Thermo Fisher Q Exactive Plus Hybrid Mass Spectrometer (QE-Plus) coupled to a Thermo Fisher EASY-nLC 1000 liquid chromatograph to ensure isobaric label incorporation >95%. An additional 1.0 μg of labeled tryptic peptide was removed from each channel, mixed together, desalted on a C18 stage tip, and analyzed via LC-MS to ensure equal relative protein loads. During these quality control steps, the labeled peptides were stored, unquenched at −80° C.

| Molecule | Average logFC | M1-1 Log2 Median Normalized | M1-2 Log2 Median Normalized | M2-1 Log2 Median Normalized | M2-2 Log2 Median Normalized | change |
| --- | --- | --- | --- | --- | --- | --- |
| O35943 (protein, UniProt O35943 1-207, looked up, full-length) MWAFGGRAAVGLLPRTASRASAWVGNPRWREPIVTCGRRGLHVTVNAGATRHAHLNLHYLQILNIKKQSVCVVHLRNLGTLDNPSSLDETAYERLAEETLDSLAEFFEDLADKPYTLEDYDVSFGDGVLTIKLGGDLGTYVINKQTPNKQIWLSSPSSGPKRYDWTGKNWVYSHDGVSLHELLARELTKALNTKLDLSSLAYSGKGT | −1.193 | −0.813 | −0.849 | −1.3945 | −1.715 | down |
| O88451 (protein, UniProt O88451 1-316, looked up, full-length) MWLYLVALVGLWTLLRFFRERQVVSHLQDKYVFITGCDSGFGNLLARQLDRRGMRVLAACLTEKGAEQLRNKTSDRLETVILDVTKTESIVAATQWVKERVGNRGLWGLVNNAGICVFAINEWLKKEDFANILDVNLLGMIEVTLSMLPLVRKARGRVVNISSSMGRVSLCGGGYCISKYGVEAFSDSLRREISYFGVKVAIIEPGGFRTNVSNYERLSHSIEKLWDQTSSEVKEVYDKNFLDSYIKAIQSLTDTCSDDLSVVTDCMEHALTACHPRTRYSAGWDAKLFYLPLSYMPTFLVDAMLYWSSVKPAQAL | −1.416 | −1.202 | −1.565 | −2.2355 | −0.662 | down |
| O35594 (protein, UniProt O35594 1-676, looked up, full-length) MSDQIKFIVDSLNKEPFKKNYNLITFDSLGPMQLLQVLNDVLAEIDPKQDVDIREEMPEQTAKRMLNLLGILKYKPPGNATDMSTFRQGLVIGSKPVIYPVLHWLLQRSNELKKRAYLARFLIKLEVPSEFLQDETVADTNKQYEELMEAFKTLHKECEQLKTSGFSTAEIRRDISAMEEEKDQLMKRVERLKKRVETVQNHQRMLKIARQLRVEKEREEFLAQQKQEQKNQLFHAVQRLQRVQNQLKSMRHAAADAKPESLMKRLEEEIKFNSYMVTEKFPKELESKKKELHFLQKVVSEPAMGHSDLLELETKVNEVNTEINQLIEKKMMRNEPIEGKLSLYRQQASIISRKKEAKAEELQETKEKLASLEREVLVKTNQTREFDGTEVLKGDEFKRYVSKLRSKSTVFKKKHQIIAEFKAEFGLLQRTEELLKQRQETIQHQLRTIEEKKGISGYSYTQEELERVSALKSEVDEMKGRTLDDMSEMVKKLNSLVSEKKSALAPVIKELRQLRQKCQELTQECDEKKAQYDSCAAGLESNRSKLEQEVRGLREECLQEESKYHYTNCMIKNLEVELRRATDEMKAYVSSDQQEKRKAIREQYTKNITEQENLGKKLREKQKAVRESHGPNMKQAKMWRDLEQLMECKKQCFLKQQSPASIGQVIQEGGEDRLVL | 1.151 | 0.817 | 1.152 | 1.1275 | 1.543 | up |
| O88513 (protein, UniProt O88513 1-206, looked up, full-length) MNLSMKQKQEGAQENVKNSPVPRRTLKMIQPSADGSLVGRENELPKGLFKRKLWDDQLASQTSSCGPEANENKDVGDLTQEAFDLISKENPSSQYWKEVAEQRRKALYEALKENEKLHKEIEQKDSEIARLRKENKDLAEVAEHVQYMAEVIERLSNEPLDNFESPDSQEFDSEEEAVEYSELEDSGAGTCAEETVSSSTDARPCT | −1.337 | −1.6 | −1.306 | −0.8435 | −1.599 | down |
| O88310 (protein, UniProt O88310 1-313, looked up, full-length) MTQLGFLLFIMVATRGCSAAEENLDTNRWGNSFFSSLPRSCKEIKQEHTKAQDGLYFLRTKNGVIYQTFCDMTTAGGGWTLVASVHENNMRGKCTVGDRWSSQQGNRADYPEGDGNWANYNTFGSAEAATSDDYKNPGYFDIQAENLGIWHVPNKSPLHNWRKSSLLRYRTFTGFLQHLGHNLFGLYKKYPVKYGEGKCWTDNGPALPVVYDFGDARKTASYYSPSGQREFTAGYVQFRVFNNERAASALCAGVRVTGCNTEHHCIGGGGFFPEGNPVQCGDFASFDWDGYGTHNGYSSSRKITEAAVLLFYR | 1.203 | 1.445 | 1.239 | 0.9545 | 1.175 | up |
| O70126 (protein, UniProt O70126 1-345, looked up, full-length) MAQKENAYPWPYGSKTSQSGLNTLSQRVLRKEPATTSALALVNRFNSQSTAAPGQKLAENKSQGSTASQGSQNKQPFTIDNFEIGRPLGKGKFGNVYLAREKKSRFIVALKILFKSQIEKEGVEHQLRREIEIQAHLKHPNILQLYNYFYDQQRIYLILEYAPRGELYKELQKSRTFDEQRTATIMEELSDALTYCHKKKVIHRDIKPENLLLGLQGELKIADFGWSVHAPSLRRKTMCGTLDYLPPEMIEGRMHNEMVDLWCIGVLCYELMVGNPPFESPSHSETYRRIVKVDLKFPSSVPSGAQDLISKLLKHNPWQRLPLAEVAAHPWVRANSRRVLPPSAL | −1.165 | −1.572 | −0.967 | −0.8395 | −1.281 | down |
| O35945 (protein, UniProt O35945 1-501, looked up, full-length) MSSPAQPAVPAPLANLKIQHTKIFINNEWHDSVSSKKFPVLNPATEEVICHVEEGDKADVDKAVKAARQAFQIGSPWRTMDASERGRLLNKLADLMERDRLLLATMESMNAGKVFAHAYLLDVEISIKALQYFAGWADKIHGQTIPSDGNIFTYTRREPIGVCGQIIPWNGPLIIFTWKLGPALSCGNTVVVKPAEQTPLTALHMASLIKEAGFPPGVVNIVPGYGPTAGGAISSHMDIDKVSFTGSTEVGKLIKEAAGKSNLKRVTLELGGKSPCIVFADADLDSAVEFAHQGVFFHQGQICVAASRLFVEESIYDEFVRRSVERAKKYILGNPLNSGINQGPQIDKEQHNKILGLIESGKKEGAKLECGGGRWGNKGFFVQPTVFSNVTDEMRIAKEEIFGPVQQIMKFKSMDDVIKRANNTTYGLAAGVFTKDLDKAITVSSALQAGMVWVNCYLAVPVQCPFGGFKMSGNGRELGEHGLYEYTELKTVAMQISQKNS | −1.329 | −1.241 | −1.721 | −1.8345 | −0.518 | down |
| O88554 (protein, UniProt O88554 1-559, looked up, full-length) MAPRRQRSGSGRRVLNEAKKVDNGNKATEDDSPPGKKMRTCQRKGPMAGGKDADRTKDNRDSVKTLLLKGKAPVDPECAAKLGKAHVYCEGDDVYDVMLNQTNLQFNNNKYYLIQLLEDDAQRNFSVWMRWGRVGKTGQHSLVTCSGDLNKAKEIFQKKFLDKTKNNWEDRENFEKVPGKYDMLQMDYAASTQDESKTKEEETLKPESQLDLRVQELLKLICNVQTMEEMMIEMKYDTKRAPLGKLTVAQIKAGYQSLKKIEDCIRAGQHGRALVEACNEFYTRIPHDFGLSIPPVIRTEKELSDKVKLLEALGDIEIALKLVKSERQGLEHPLDQHYRNLHCALRPLDHESNEFKVISQYLQSTHAPTHKDYTMTLLDVFEVEKEGEKEAFREDLPNRMLLWHGSRLSNWVGILSHGLRVAPPEAPITGYMFGKGIYFADMSSKSANYCFASRLKNTGLLLLSEVALGQCNELLEANPKAQGLLRGKHSTKGMGKMAPSPAHFITLNGSTVPLGPASDTGILNPEGYTLNYNEFIVYSPNQVRMRYLLKIQFNFLQLW | −1.403 | −1.403 | −0.933 | −1.4925 | −1.465 | down |
